Source: article PMC12236821

Biological target: AtBAM1 ectodomain (residues 20-629) (Arabidopsis thaliana) (UniProt O49545)
Assay: ITC

UniProt O49545, sequence (O49545 20-629): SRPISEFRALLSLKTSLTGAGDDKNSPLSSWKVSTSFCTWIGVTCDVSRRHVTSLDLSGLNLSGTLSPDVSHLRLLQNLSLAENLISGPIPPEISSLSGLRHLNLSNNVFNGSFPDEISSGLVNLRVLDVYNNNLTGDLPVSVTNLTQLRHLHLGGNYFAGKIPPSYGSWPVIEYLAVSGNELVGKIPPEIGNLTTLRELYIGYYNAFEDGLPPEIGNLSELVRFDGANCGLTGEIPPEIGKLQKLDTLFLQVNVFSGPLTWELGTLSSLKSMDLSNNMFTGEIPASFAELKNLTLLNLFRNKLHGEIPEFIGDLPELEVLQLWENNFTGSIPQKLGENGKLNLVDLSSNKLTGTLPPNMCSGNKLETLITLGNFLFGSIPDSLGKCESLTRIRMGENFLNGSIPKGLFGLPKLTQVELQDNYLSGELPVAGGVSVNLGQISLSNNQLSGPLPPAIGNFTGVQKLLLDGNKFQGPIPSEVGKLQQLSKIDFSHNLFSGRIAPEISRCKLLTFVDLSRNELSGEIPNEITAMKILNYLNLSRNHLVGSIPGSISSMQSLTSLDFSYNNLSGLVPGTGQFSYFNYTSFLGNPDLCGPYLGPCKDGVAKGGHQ

fold lower affinity than AtCLE13p: 1000 fold
Substance: AtCLV3p (Arabidopsis CLAVATA3 peptide)
